Here are results for five sequences from patent US20150258192A1, “COMPOSITIONS AND METHODS FOR PREVENTING OR TREATING CHRONIC LUNG ALLOGRAFT DYSFUNCTION (CLAD) AND IDIOPATHIC PULMONARY FIBROSIS (IPF)” (priority 2014, published 2015).

No end group written: not given here.

Holding throughout (test): Kinase Profiling Assay
Common to all, as to assay type: biochemical
What all share (conditions): peptide 100 μM

One experiment deals with T1, PKD2(h) (Homo sapiens, UniProt Q9BZL6).
T1 sequence (Q9BZL6 1-878): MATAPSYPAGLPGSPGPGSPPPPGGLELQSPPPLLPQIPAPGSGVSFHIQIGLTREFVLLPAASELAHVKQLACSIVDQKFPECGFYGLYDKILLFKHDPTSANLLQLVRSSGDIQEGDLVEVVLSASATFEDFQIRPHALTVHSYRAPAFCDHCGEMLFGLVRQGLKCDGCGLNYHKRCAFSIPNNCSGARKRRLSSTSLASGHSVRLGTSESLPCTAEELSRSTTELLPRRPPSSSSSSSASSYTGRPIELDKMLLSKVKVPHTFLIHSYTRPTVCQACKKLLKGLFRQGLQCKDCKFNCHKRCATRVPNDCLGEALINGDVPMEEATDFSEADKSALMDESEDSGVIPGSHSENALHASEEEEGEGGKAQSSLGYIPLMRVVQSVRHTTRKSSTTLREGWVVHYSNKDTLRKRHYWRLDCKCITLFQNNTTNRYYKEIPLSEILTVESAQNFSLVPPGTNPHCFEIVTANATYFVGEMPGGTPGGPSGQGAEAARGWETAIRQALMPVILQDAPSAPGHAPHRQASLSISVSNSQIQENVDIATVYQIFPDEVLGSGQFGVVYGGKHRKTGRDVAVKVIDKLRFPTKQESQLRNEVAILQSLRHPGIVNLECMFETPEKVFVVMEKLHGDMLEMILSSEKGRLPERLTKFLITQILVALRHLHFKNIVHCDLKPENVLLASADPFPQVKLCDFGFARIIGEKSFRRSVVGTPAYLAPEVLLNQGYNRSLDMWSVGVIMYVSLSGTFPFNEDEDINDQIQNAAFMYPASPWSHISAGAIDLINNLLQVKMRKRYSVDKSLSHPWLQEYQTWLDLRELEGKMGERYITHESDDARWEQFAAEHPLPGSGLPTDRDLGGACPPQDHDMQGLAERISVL
The gist of the method: (§1)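 Activity remaining relative to an uninhibited control was determined by scintillation counting of labeled substrate bound to a negatively charged filter. Radiolabeled phosphate came from ATP; the substrate carried positive charge. Duplicate measurements, within a 266-kinase human panel.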

The next experiment addresses T2, MAPK2(h) (Homo sapiens, UniProt P28482).
T2 construct: purchased Millipore
The gist of the method: as §1

The next experiment addresses T3, HIPK2(h) (Homo sapiens, UniProt Q9H2X6).
T3 construct: purchased Millipore
The gist of the method:
as §1

The target in the next experiment is T4, TAO2(h) (Homo sapiens, UniProt Q9UL54).
T4 construct: purchased Millipore
T4 sequence (Q9UL54 1-1235): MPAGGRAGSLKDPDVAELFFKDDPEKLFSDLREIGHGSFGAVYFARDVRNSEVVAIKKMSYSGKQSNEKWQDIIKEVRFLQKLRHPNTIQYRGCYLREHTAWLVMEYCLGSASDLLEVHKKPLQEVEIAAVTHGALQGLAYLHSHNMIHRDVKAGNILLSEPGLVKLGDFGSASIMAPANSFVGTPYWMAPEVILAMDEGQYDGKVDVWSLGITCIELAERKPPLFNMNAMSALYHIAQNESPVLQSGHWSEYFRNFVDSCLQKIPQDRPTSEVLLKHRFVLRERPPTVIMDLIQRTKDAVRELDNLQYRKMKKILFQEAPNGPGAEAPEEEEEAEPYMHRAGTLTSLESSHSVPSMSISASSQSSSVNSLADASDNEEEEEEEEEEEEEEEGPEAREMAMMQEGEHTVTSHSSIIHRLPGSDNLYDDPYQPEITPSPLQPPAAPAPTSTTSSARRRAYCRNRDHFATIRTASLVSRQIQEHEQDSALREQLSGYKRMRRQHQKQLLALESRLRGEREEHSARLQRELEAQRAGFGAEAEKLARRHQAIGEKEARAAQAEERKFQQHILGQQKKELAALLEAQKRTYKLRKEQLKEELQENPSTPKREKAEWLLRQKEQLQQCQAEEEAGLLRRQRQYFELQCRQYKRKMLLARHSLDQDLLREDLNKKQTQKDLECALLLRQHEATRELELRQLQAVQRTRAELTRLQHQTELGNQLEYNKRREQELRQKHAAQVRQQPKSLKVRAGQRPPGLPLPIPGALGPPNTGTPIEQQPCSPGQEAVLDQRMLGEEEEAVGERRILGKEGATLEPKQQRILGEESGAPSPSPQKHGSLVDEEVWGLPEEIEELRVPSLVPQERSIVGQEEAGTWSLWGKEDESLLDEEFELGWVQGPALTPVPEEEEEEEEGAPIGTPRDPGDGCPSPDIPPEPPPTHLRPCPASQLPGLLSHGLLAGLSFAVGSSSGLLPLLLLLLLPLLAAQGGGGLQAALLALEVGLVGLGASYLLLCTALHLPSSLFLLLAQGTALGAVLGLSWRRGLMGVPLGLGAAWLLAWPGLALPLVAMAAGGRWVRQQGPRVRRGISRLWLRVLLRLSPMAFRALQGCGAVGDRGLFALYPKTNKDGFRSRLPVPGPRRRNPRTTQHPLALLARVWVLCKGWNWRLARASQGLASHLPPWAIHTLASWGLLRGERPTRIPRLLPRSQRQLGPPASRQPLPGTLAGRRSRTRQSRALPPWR
The gist of the method: as §1

In another experiment the target is PKCγ(h) (Homo sapiens, UniProt P05129). The gist of the method: as §1
In the next experiment the target is TrkB(h) (Homo sapiens, UniProt Q16620). The procedure, abridged:
as §1

In the next experiment the target is T5, Met(D1246N)(h) (Homo sapiens, UniProt P08581, D1228N).
T5 construct: purchased Millipore
The gist of the method:
as §1

T3 sequence (Q9H2X6 whole entry): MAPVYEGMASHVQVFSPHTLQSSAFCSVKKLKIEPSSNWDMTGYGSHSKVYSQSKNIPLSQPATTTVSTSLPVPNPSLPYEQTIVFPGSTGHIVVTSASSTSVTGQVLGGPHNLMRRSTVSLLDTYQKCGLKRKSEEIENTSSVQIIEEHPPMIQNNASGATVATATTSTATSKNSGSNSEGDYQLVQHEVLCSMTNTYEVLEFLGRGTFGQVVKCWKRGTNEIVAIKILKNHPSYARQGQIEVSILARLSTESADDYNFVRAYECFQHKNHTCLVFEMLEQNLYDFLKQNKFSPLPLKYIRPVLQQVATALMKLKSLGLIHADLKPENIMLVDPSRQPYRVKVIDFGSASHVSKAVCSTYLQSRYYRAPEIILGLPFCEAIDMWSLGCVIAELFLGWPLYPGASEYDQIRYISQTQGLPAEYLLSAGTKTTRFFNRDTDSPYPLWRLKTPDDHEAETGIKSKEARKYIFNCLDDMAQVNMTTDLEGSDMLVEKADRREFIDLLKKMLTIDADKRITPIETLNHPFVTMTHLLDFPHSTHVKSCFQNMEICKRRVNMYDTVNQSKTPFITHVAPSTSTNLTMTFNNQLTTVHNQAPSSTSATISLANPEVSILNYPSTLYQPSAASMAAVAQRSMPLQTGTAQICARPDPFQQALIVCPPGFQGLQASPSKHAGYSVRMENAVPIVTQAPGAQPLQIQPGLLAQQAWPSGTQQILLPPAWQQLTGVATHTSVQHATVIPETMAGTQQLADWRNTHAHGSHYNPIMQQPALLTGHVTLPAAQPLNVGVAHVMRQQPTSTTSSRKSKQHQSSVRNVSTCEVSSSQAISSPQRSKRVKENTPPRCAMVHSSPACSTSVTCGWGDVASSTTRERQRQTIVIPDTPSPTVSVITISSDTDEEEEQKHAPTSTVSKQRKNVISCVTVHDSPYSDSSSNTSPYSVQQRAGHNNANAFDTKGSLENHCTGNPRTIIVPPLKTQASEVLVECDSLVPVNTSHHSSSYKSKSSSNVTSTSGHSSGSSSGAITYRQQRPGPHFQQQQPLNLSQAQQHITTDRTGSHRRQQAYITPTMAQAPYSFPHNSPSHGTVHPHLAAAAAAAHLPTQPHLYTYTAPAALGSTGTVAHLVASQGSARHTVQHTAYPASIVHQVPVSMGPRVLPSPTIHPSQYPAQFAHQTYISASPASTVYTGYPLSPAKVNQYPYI
T2 sequence (P28482 whole entry): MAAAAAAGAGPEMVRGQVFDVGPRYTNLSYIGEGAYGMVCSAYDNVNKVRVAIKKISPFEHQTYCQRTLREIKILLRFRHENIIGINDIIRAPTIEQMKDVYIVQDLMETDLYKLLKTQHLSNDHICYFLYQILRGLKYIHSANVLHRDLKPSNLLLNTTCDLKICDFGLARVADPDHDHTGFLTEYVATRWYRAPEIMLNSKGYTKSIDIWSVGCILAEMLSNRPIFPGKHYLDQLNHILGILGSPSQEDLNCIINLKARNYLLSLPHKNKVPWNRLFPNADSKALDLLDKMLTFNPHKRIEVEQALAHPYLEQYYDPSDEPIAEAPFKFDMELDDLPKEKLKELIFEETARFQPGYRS

Regarding FAKLAARLYRKALARQLGVAA [MMI-0300], the “% activity” value with PKD2(h) stood at 33%; with MAPK2(h) it was 98%; in the experiment with HIPK2(h), 73%; with TAO2(h), 70%; in the experiment with PKCγ(h), 89%; with TrkB(h), 5%. In addition, the “% activity” value with Met(D1246N)(h) stood at 82%.

Take “HRRIKAWLKKIKALARQLGVAA (Mammal) [MMI-0500]”: the “% activity” value with PKD2(h) was 10%; with MAPK2(h), 60%; with HIPK2(h), 38%; with TAO2(h), 15%; in the experiment with PKCγ(h) it was 6%; in the experiment with TrkB(h) it was 12%. Moreover, the “% activity” value in the experiment with Met(D1246N)(h) stood at 90%.

Consider KAFAKLAARLYRKALARQLGVAA [MMI-0400], for which the “% activity” value with PKD2(h) was 25%; with MAPK2(h), 93%; with HIPK2(h), 90%; with TAO2(h), 74%; in the experiment with PKCγ(h) it was 79%; with TrkB(h), 8%. Besides, in the experiment with Met(D1246N)(h), the “% activity” value was determined as 31%.

For the sequence YARAAARQARAKALARQLGVAA [MMI-0100], the “% activity” value at PKD2(h) is 84%; at HIPK2(h) it was 98%; at TAO2(h), 95%; on TrkB(h) it was 4%.

For the sequence “YARAAARQARAKALNRQLGVA (Mammal) [MMI-0200]”, the “% activity” value with PKD2(h) is given as 78%; with TAO2(h) it was 93%; with PKCγ(h) it was 101%; with TrkB(h), 7%; with Met(D1246N)(h), 149%.
